# Assay results published in the RNAGym collection of RNA variant scans (doi:10.1073/pnas.2313332121).
# Variants at the floor of the assay were thinned out.
# B1: TPR 5TU (parent)
# chain: GGAUCUUCUCGAUCUAACAAAAAAGACAAAUCUGCCACAAAGCUUGAGAGCAUCUUCGGAUGCAGAGGCGGCAGCCUUCGGUGGCGCGAUAGCGCCAACGUUCUCAACUAUGACACGCAAAACGCGUGCUCCGUUGAAUGGAGUUUAUCAUG
# Variants of: B1
# Assay: polymerase ribozyme fitness, log enrichment relative to wild type (log ratio); higher = more active; in vitro selection for triplet polymerase activity
# In short: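 Input and output libraries were sequenced on Illumina after a single in vitro selection round, run in triplicate on PCR-built, transcribed mutant libraries of each subunit of a heterodimeric triplet polymerase ribozyme. Selection annealed libraries to a biotinylated primer, the partner subunit and triplets, incubated them frozen at −7 °C, then gel-excised extended constructs for streptavidin-bead capture and RT-PCR. Genotypes with ≥10 input reads and ≥1 read per output were kept. Fitness is the logarithm, taken in base 2, of genotype enrichment divided by wild-type enrichment, using inverse-variance-weighted replicate averages.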
row,Variant,polymerase ribozyme fitness (log ratio)
1,A30U G50A C57A C75U C85A G140U G143A,≤ -4.2
2,A28U G62A G65A G94A G136A,≤ -4.2
3,U4A C8U A24C C96U,≤ -4.2
4,G68U C95U C96U A113C G124U,≤ -4.2
5,C8G U55G C72U G84U G136A,≤ -4.2
6,C14U C18A A20C C93A G136A A142C,-2.57
7,A66C A91C,≤ -4.2
8,C32U A37C G68A G80A C87U C95G,≤ -4.2
9,A16U C38U A91U C103A,≤ -4.2
10,U53G C93A C95A A97U A98C G100U U130G G140U,≤ -4.2
11,C54U C85U C95A,-1.84
12,A37U A66G C149U G152C,≤ -4.2
13,A28G C93U U127C,≤ -4.2
14,G50U U78C U139G,-3.06
15,A3C U4A U6C U15C A17G C38U C54U C72U G86U U127G,≤ -4.2
16,A73G C93A A110C U139A,≤ -4.2
17,U53A C76A,-2.19
18,G25U C32U C36A C85U C114U C129U U134C,≤ -4.2
19,C76U C87G C125G,≤ -4.2
20,C32U A52G U77G A97C U144A,≤ -4.2
21,C123G,-0.337

row,Variant,polymerase ribozyme fitness (log ratio)
1,A91C C95U C103G C116G,≤ -4.2
2,C10A C32A U56G G80C U82G C87U A98U,≤ -4.2
3,U13G A41C C96U A107U C131A G133A U146C,≤ -4.2
4,A22U C54U,0.174
5,A37G U61A G141C U148C,≤ -4.2
6,G84A U146A,-0.719
7,A23C G59A G92U U104C A113C C123U G124A,≤ -4.2
8,U44G G59A A60C G83A C95G C103G,≤ -4.2
9,C38U U55C A64U G94A C103A C125U,≤ -4.2
10,C54U A91U U102G,≤ -4.2
11,C5A C27U,-1.46
12,A49C A98G,≤ -4.2
13,C57A U82G G84U C95A,-0.701
14,C14U G92C A150U,-4.2
15,C54A U61A C69U C125A,≤ -4.2
16,A24U C51G U55A G59C,-2.27
17,U7A A28U A40U U55A C57A C76U U78G C96G C123G,≤ -4.2
18,C14G C99G,-3.32
19,C10U A41U G70C G83U C108U U134A A142G,≤ -4.2
20,A20U A22C U82G G86U U101G C103G G143U,≤ -4.2
21,U31C C95G,-0.224

row,Variant,polymerase ribozyme fitness (log ratio)
1,U15G C18G G50C U53G G92A U148G,≤ -4.2
2,A49C G141A,-3.79
3,C5G U45G G86U C93G A97G,-3.16
4,C76U A150U,0.843
5,C51U G92U C99A A106G C123G C129U,-2.74
6,C18A A26U G84A A138G,≤ -4.2
7,A41U G46U A52U,-4.03
8,A21C G50C A60C A64U A66G G83A,≤ -4.2
9,G34U A41G G81A G84U C87A C93A A110G,≤ -4.2
10,A3C U13G G62A A66C U145A,≤ -4.2
11,A17G C99U,-0.271
12,U55A C63A G83C G84U C125G U135A,≤ -4.2
13,C36A U82A A98G,-4.01
14,A22U G59A A66U G86A A120G A138G,≤ -4.2
15,C8U G83C,-2.8
16,A23U A37U A97U U111C,≤ -4.2
17,A41U U55C C63U G86A,-2.8
18,A12U C87G,-4.2
19,G81C C93U U130G C131U A150U,≤ -4.2
20,U31A U45A C76U C85U C93U G136U A150C,≤ -4.2
21,G92A,-2.51

row,Variant,polymerase ribozyme fitness (log ratio)
1,A29G G59U A60U C114U,≤ -4.2
2,G92U U145A,0.602
3,A17G U53C A73G U139A A142U U146G,≤ -4.2
4,A20G G68U C85U,≤ -4.2
5,A20G A91G U146A,-3.96
6,U78A,-3.62
7,C27A C75U C93G A115U,≤ -4.2
8,A52G G94C,-1.32
9,A23U A40G U77A G84A U146G,≤ -4.2
10,G80C C87U,≤ -4.2
11,C38U A40C G80U C95U,-1.06
12,C5U A29U G62A G67C A142U,≤ -4.2
13,A60C C103A,≤ -4.2
14,A20G A47C G48C G50C U56C C87A C95G U139A G141A,-4.1
15,A41C G50A A52C C54U U56A C75U C87U U146G A150G,≤ -4.2
16,U6G C96U,-0.759
17,C27U C87A,≤ -4.2
18,C10G A19U G46A C85A C105U,≤ -4.2
19,C14G U15G C18G U55G G68A,≤ -4.2
20,A3U G84A G94A A98C G124A,-0.883
